{"source": "paper PMC11561172", "about": "(Nature Communications, 2024)", "target": "the molecule itself", "experiment": "cryo-EM structure", "data": [{"protein": "RNA polymerase α subunit (natural protein, Spinacia oleracea (spinach), UniProt P06505 1-335, looked up) MVREKIRVSTQTLQWKCVESRTDSKCLHYGRFILSPLMKGQADTIGIAMRRALLGEIEGTCITRAKSEKIPHEYSTILGIQESVHEILMNLKEIVLRSNLYGTCEASICVRGPRGVTAQDIILPPYVEIVDNTQHIASLTEPIDLCIGLQLERNRGYHIKAPNNFQDGSFPIDALFMPVRNVNHSIHSYGNGNEKQEILFLEIWTNGSLTPKEALYEASRNLIDLLIPFLHAEENVNLEDNQHKVSLPLFTFHNRLAEIRKNKKKIALKFIFIDQLELPPRIYNCLKKSNIHTLLDLLNNSQEDLIKMKHFRIEDVKQIFGTLEKHFVIDLKNKR", "values": [{"measurement": "binding result", "value": "binds"}]}]}
